From patent EP4692114A1, “CALCITONIN ANALOGUE, AND DERIVATIVE THEREOF AND USE THEREOF” (Hangzhou Sciwind Biosciences Co., Ltd., priority 2023, dated 2024)
*1 amine or outer side, *2 acyl side, *3 side chain or, on linkers, in order; H or OH if unused. Primed or numbered codes have the meaning given here. The star is where a group is joined. C22 diacid = O=C(O)CCCCCCCCCCCCCCCCCCCCC(=O)*; C20 diacid = O=C(O)CCCCCCCCCCCCCCCCCCC(=O)*; C18 diacid = O=C(O)CCCCCCCCCCCCCCCCC(=O)*; γGlu = O=C(O)[C@H](CCC(=O)[*:2])N[*:1]; Inp′ = not defined here; AEEA = NCCOCCOCC(=O)O

T1: human amylin receptor (AMY3) on CHO-K1/Gal5/AMY3 cells (human, UniProt P30988 25-474; O60896 24-148)
T1 sequence (looked up) 1: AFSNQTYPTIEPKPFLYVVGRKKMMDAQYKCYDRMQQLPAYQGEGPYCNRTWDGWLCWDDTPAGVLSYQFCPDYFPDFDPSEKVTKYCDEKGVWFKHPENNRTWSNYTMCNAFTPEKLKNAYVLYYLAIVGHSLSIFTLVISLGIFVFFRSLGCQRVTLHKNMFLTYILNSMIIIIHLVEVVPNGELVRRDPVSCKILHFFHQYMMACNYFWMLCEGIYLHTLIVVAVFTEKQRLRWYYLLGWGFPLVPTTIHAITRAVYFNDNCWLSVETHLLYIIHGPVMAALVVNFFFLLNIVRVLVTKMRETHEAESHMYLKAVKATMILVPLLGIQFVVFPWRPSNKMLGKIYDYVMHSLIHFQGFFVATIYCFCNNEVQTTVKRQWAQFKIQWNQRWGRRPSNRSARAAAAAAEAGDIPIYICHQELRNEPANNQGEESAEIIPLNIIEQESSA
T1 sequence (looked up) 2: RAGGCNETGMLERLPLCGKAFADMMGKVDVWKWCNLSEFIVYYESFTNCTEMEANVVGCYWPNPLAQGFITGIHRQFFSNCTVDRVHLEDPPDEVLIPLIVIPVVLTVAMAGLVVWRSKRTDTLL

B1: calcitonin derivative M64 (peptide)
peptide: {C20 diacid-γGlu-AEEA-AEEA-AEEA-AEEA-AEEA-AEEA}-ASQLSTAVLGRLSEELHRLQDYPRTDVGSGSP-NH2
SMILES: CC(C)C[C@H](NC(=O)[C@H](CCCNC(=N)N)NC(=O)CNC(=O)[C@H](CC(C)C)NC(=O)[C@@H](NC(=O)[C@H](C)NC(=O)[C@@H](NC(=O)[C@H](CO)NC(=O)[C@H](CC(C)C)NC(=O)[C@H](CCC(N)=O)NC(=O)[C@H](CO)NC(=O)[C@H](C)NC(=O)COCCOCCNC(=O)COCCOCCNC(=O)COCCOCCNC(=O)COCCOCCNC(=O)COCCOCCNC(=O)COCCOCCNC(=O)CC[C@H](NC(=O)CCCCCCCCCCCCCCCCCCC(=O)O)C(=O)O)[C@@H](C)O)C(C)C)C(=O)N[C@@H](CO)C(=O)N[C@@H](CCC(=O)O)C(=O)N[C@@H](CCC(=O)O)C(=O)N[C@@H](CC(C)C)C(=O)N[C@@H](Cc1c[nH]cn1)C(=O)N[C@@H](CCCNC(=N)N)C(=O)N[C@@H](CC(C)C)C(=O)N[C@@H](CCC(N)=O)C(=O)N[C@@H](CC(=O)O)C(=O)N[C@@H](Cc1ccc(O)cc1)C(=O)N1CCC[C@H]1C(=O)N[C@@H](CCCNC(=N)N)C(=O)N[C@H](C(=O)N[C@@H](CC(=O)O)C(=O)N[C@H](C(=O)NCC(=O)N[C@@H](CO)C(=O)NCC(=O)N[C@@H](CO)C(=O)N1CCC[C@H]1C(N)=O)C(C)C)[C@@H](C)O
B2: calcitonin derivative M16 (peptide)
peptide: {C20 diacid-γGlu}-ASQLSTAVLGRLSQELHRLQDYPRTDSGSGSP-NH2
SMILES: CC(C)C[C@H](NC(=O)[C@H](CCCNC(=N)N)NC(=O)CNC(=O)[C@H](CC(C)C)NC(=O)[C@@H](NC(=O)[C@H](C)NC(=O)[C@@H](NC(=O)[C@H](CO)NC(=O)[C@H](CC(C)C)NC(=O)[C@H](CCC(N)=O)NC(=O)[C@H](CO)NC(=O)[C@H](C)NC(=O)CC[C@H](NC(=O)CCCCCCCCCCCCCCCCCCC(=O)O)C(=O)O)[C@@H](C)O)C(C)C)C(=O)N[C@@H](CO)C(=O)N[C@@H](CCC(N)=O)C(=O)N[C@@H](CCC(=O)O)C(=O)N[C@@H](CC(C)C)C(=O)N[C@@H](Cc1c[nH]cn1)C(=O)N[C@@H](CCCNC(=N)N)C(=O)N[C@@H](CC(C)C)C(=O)N[C@@H](CCC(N)=O)C(=O)N[C@@H](CC(=O)O)C(=O)N[C@@H](Cc1ccc(O)cc1)C(=O)N1CCC[C@H]1C(=O)N[C@@H](CCCNC(=N)N)C(=O)N[C@H](C(=O)N[C@@H](CC(=O)O)C(=O)N[C@@H](CO)C(=O)NCC(=O)N[C@@H](CO)C(=O)NCC(=O)N[C@@H](CO)C(=O)N1CCC[C@H]1C(N)=O)[C@@H](C)O
B3: calcitonin derivative M49 (peptide)
peptide: {C20 diacid-γGlu}-ASQLSTAVLGRLSQELHRLQDFPRTDVGSGSP-NH2
SMILES: CC(C)C[C@H](NC(=O)[C@H](CCCNC(=N)N)NC(=O)CNC(=O)[C@H](CC(C)C)NC(=O)[C@@H](NC(=O)[C@H](C)NC(=O)[C@@H](NC(=O)[C@H](CO)NC(=O)[C@H](CC(C)C)NC(=O)[C@H](CCC(N)=O)NC(=O)[C@H](CO)NC(=O)[C@H](C)NC(=O)CC[C@H](NC(=O)CCCCCCCCCCCCCCCCCCC(=O)O)C(=O)O)[C@@H](C)O)C(C)C)C(=O)N[C@@H](CO)C(=O)N[C@@H](CCC(N)=O)C(=O)N[C@@H](CCC(=O)O)C(=O)N[C@@H](CC(C)C)C(=O)N[C@@H](Cc1c[nH]cn1)C(=O)N[C@@H](CCCNC(=N)N)C(=O)N[C@@H](CC(C)C)C(=O)N[C@@H](CCC(N)=O)C(=O)N[C@@H](CC(=O)O)C(=O)N[C@@H](Cc1ccccc1)C(=O)N1CCC[C@H]1C(=O)N[C@@H](CCCNC(=N)N)C(=O)N[C@H](C(=O)N[C@@H](CC(=O)O)C(=O)N[C@H](C(=O)NCC(=O)N[C@@H](CO)C(=O)NCC(=O)N[C@@H](CO)C(=O)N1CCC[C@H]1C(N)=O)C(C)C)[C@@H](C)O
B4: calcitonin derivative M48 (peptide)
peptide: {C18 diacid-Inp′}-ASQLSTAVLGRLSDELHRLQDYPRTDVGSGSP-NH2
B5: calcitonin derivative M65 (peptide)
peptide: {C22 diacid-γGlu}-ASQLSTAVLGRLSEELHRLQDYPRTDVGSGSP-NH2
SMILES: CC(C)C[C@H](NC(=O)[C@H](CCCNC(=N)N)NC(=O)CNC(=O)[C@H](CC(C)C)NC(=O)[C@@H](NC(=O)[C@H](C)NC(=O)[C@@H](NC(=O)[C@H](CO)NC(=O)[C@H](CC(C)C)NC(=O)[C@H](CCC(N)=O)NC(=O)[C@H](CO)NC(=O)[C@H](C)NC(=O)CC[C@H](NC(=O)CCCCCCCCCCCCCCCCCCCCC(=O)O)C(=O)O)[C@@H](C)O)C(C)C)C(=O)N[C@@H](CO)C(=O)N[C@@H](CCC(=O)O)C(=O)N[C@@H](CCC(=O)O)C(=O)N[C@@H](CC(C)C)C(=O)N[C@@H](Cc1c[nH]cn1)C(=O)N[C@@H](CCCNC(=N)N)C(=O)N[C@@H](CC(C)C)C(=O)N[C@@H](CCC(N)=O)C(=O)N[C@@H](CC(=O)O)C(=O)N[C@@H](Cc1ccc(O)cc1)C(=O)N1CCC[C@H]1C(=O)N[C@@H](CCCNC(=N)N)C(=O)N[C@H](C(=O)N[C@@H](CC(=O)O)C(=O)N[C@H](C(=O)NCC(=O)N[C@@H](CO)C(=O)NCC(=O)N[C@@H](CO)C(=O)N1CCC[C@H]1C(N)=O)C(C)C)[C@@H](C)O
B6: calcitonin derivative M17 (peptide)
peptide: {C20 diacid-γGlu}-ASQLSTAVLGRLSQELHRLQDYPRTQSGSGSP-NH2
SMILES: CC(C)C[C@H](NC(=O)[C@H](CCCNC(=N)N)NC(=O)CNC(=O)[C@H](CC(C)C)NC(=O)[C@@H](NC(=O)[C@H](C)NC(=O)[C@@H](NC(=O)[C@H](CO)NC(=O)[C@H](CC(C)C)NC(=O)[C@H](CCC(N)=O)NC(=O)[C@H](CO)NC(=O)[C@H](C)NC(=O)CC[C@H](NC(=O)CCCCCCCCCCCCCCCCCCC(=O)O)C(=O)O)[C@@H](C)O)C(C)C)C(=O)N[C@@H](CO)C(=O)N[C@@H](CCC(N)=O)C(=O)N[C@@H](CCC(=O)O)C(=O)N[C@@H](CC(C)C)C(=O)N[C@@H](Cc1c[nH]cn1)C(=O)N[C@@H](CCCNC(=N)N)C(=O)N[C@@H](CC(C)C)C(=O)N[C@@H](CCC(N)=O)C(=O)N[C@@H](CC(=O)O)C(=O)N[C@@H](Cc1ccc(O)cc1)C(=O)N1CCC[C@H]1C(=O)N[C@@H](CCCNC(=N)N)C(=O)N[C@H](C(=O)N[C@@H](CCC(N)=O)C(=O)N[C@@H](CO)C(=O)NCC(=O)N[C@@H](CO)C(=O)NCC(=O)N[C@@H](CO)C(=O)N1CCC[C@H]1C(N)=O)[C@@H](C)O
B7: calcitonin derivative M32 (peptide)
peptide: {C20 diacid-γGlu}-RSQLSTEVLGRLSQELHRLQDYPRTDVGSGSP-NH2
SMILES: CC(C)C[C@H](NC(=O)[C@H](CCCNC(=N)N)NC(=O)CNC(=O)[C@H](CC(C)C)NC(=O)[C@@H](NC(=O)[C@H](CCC(=O)O)NC(=O)[C@@H](NC(=O)[C@H](CO)NC(=O)[C@H](CC(C)C)NC(=O)[C@H](CCC(N)=O)NC(=O)[C@H](CO)NC(=O)[C@H](CCCNC(=N)N)NC(=O)CC[C@H](NC(=O)CCCCCCCCCCCCCCCCCCC(=O)O)C(=O)O)[C@@H](C)O)C(C)C)C(=O)N[C@@H](CO)C(=O)N[C@@H](CCC(N)=O)C(=O)N[C@@H](CCC(=O)O)C(=O)N[C@@H](CC(C)C)C(=O)N[C@@H](Cc1c[nH]cn1)C(=O)N[C@@H](CCCNC(=N)N)C(=O)N[C@@H](CC(C)C)C(=O)N[C@@H](CCC(N)=O)C(=O)N[C@@H](CC(=O)O)C(=O)N[C@@H](Cc1ccc(O)cc1)C(=O)N1CCC[C@H]1C(=O)N[C@@H](CCCNC(=N)N)C(=O)N[C@H](C(=O)N[C@@H](CC(=O)O)C(=O)N[C@H](C(=O)NCC(=O)N[C@@H](CO)C(=O)NCC(=O)N[C@@H](CO)C(=O)N1CCC[C@H]1C(N)=O)C(C)C)[C@@H](C)O
B8: calcitonin derivative M30 (peptide)
peptide: {C20 diacid-γGlu}-SSQLSTAVLGRLSQELHRLQDYPRTDVGSGSP-NH2
SMILES: CC(C)C[C@H](NC(=O)[C@H](CCCNC(=N)N)NC(=O)CNC(=O)[C@H](CC(C)C)NC(=O)[C@@H](NC(=O)[C@H](C)NC(=O)[C@@H](NC(=O)[C@H](CO)NC(=O)[C@H](CC(C)C)NC(=O)[C@H](CCC(N)=O)NC(=O)[C@H](CO)NC(=O)[C@H](CO)NC(=O)CC[C@H](NC(=O)CCCCCCCCCCCCCCCCCCC(=O)O)C(=O)O)[C@@H](C)O)C(C)C)C(=O)N[C@@H](CO)C(=O)N[C@@H](CCC(N)=O)C(=O)N[C@@H](CCC(=O)O)C(=O)N[C@@H](CC(C)C)C(=O)N[C@@H](Cc1c[nH]cn1)C(=O)N[C@@H](CCCNC(=N)N)C(=O)N[C@@H](CC(C)C)C(=O)N[C@@H](CCC(N)=O)C(=O)N[C@@H](CC(=O)O)C(=O)N[C@@H](Cc1ccc(O)cc1)C(=O)N1CCC[C@H]1C(=O)N[C@@H](CCCNC(=N)N)C(=O)N[C@H](C(=O)N[C@@H](CC(=O)O)C(=O)N[C@H](C(=O)NCC(=O)N[C@@H](CO)C(=O)NCC(=O)N[C@@H](CO)C(=O)N1CCC[C@H]1C(N)=O)C(C)C)[C@@H](C)O

What follows are binders tested against T1, human amylin receptor (AMY3) on … (assay: cell-based or functional assay).

| EC50/nM, CRE-luciferase in amylin receptor/CRE-luc CHO cells | Binder |
| --- | --- |
| 0.044 nM | B1 |
| 0.025 nM | B2 |
| 0.075 nM | B3 |
| 0.063 nM | B4 |
| 0.017 nM | B5 |
| 0.042 nM | B6 |
| 0.03 nM | B7 |
| 0.017 nM | B8 |
